From patent publication US20240218057A1

Legend:
[1] = target: SARS-COV-2 RBD (SARS-COV-2) (UniProt P0DTC2); assay: ELISA, RBD coated
[2] = target: SARS-CoV-2 receptor-binding domain (WT RBD; S protein residues 319-539) (SARS-CoV-2) (UniProt P0DTC2); assay: BLI (Octet Red), IgG on protein A biosensor, WT RBD in solution, 1:1 fit

C144 (antibody) gave an EC50 [1] of 1.83 ng/mL and a Kd [2] of 714 nM.
